± gives the uncertainty stated by the source.
Assay: amyloid nucleation score (Sup35N fusion, yeast selection) (log enrichment); library NNK3; higher = more nucleation; inactive = no reads after selection
Summary of the method: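 Psi-negative yeast expressed Sup35N fused to peptides of 20 random codons. They were induced 24 hours with 100 μM copper sulfate, grown 7 days at 30°C without adenine and uracil, and their plasmid inserts from input and output were Illumina-sequenced. The nucleation score is the DiMSum log enrichment of output over input reads, centred on the mode score of non-aggregating sequences. Sequences with under 100 input reads were excluded.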
With VRPLVDYMMQNM the amyloid nucleation score was “inactive”.
LFSLIVNTRLETLEFKGQIP showed an amyloid nucleation score of 1.02 ± 0.11.
For VFRLLVDKYCGFSPVGLPDV, the amyloid nucleation score was “inactive”.
In the case of GYFRWSRAFQLPWNSWSEWQ, the amyloid nucleation score is reported as “inactive”.
For VSEIFFADVFISWYGISRVL, the amyloid nucleation score was “inactive”.
For SRRVN, the amyloid nucleation score was “inactive”.
With DRSIEVDAYSCAVGVYQGPV the amyloid nucleation score was “inactive”.
IVVVAFKSPSV showed an amyloid nucleation score of 0.217 ± 0.32.
With YRFVRGWFRMRIERPAAPCT the amyloid nucleation score was “inactive”.
In the case of DNTQLSVCWSLSPDTVWKLG, the amyloid nucleation score is reported as “inactive”.
With TGVDILIPFFSPSGT the amyloid nucleation score was “inactive”.
For RTRFFSQFSSL, the amyloid nucleation score was “inactive”.
In the case of GGKMMFFKIRFFC, the amyloid nucleation score is reported as “inactive”.
In the case of YDRGLISWTCVRVSS, the amyloid nucleation score is reported as “inactive”.
For GSKAHNDIDRGGSWMGWNIA, the amyloid nucleation score was “inactive”.
In the case of ERALPQGMDRWSWFRERSCH, the amyloid nucleation score is reported as “inactive”.
With RSMRSQSSLQAHQSIRSEGR the amyloid nucleation score was “inactive”.
With LCISVPNFSLAFLSLGWLCK the amyloid nucleation score was “inactive”.
With TVDFLSLVCVVIFRGTDWRR the amyloid nucleation score was -1.03 ± 1.1.
For SPLKIMH, the amyloid nucleation score was “inactive”.
In the case of SMVVERGNQRLRSTYYADCV, the amyloid nucleation score is reported as “inactive”.
For DNCLNCNRCKCIYKDFWLSA, the amyloid nucleation score was “inactive”.
With EEVMMRAINQEAPCEPQLRV the amyloid nucleation score was “inactive”.
For LQHFVR, the amyloid nucleation score was “inactive”.
GLCNTYCFHHCFRWVR gave an amyloid nucleation score of 0.769 ± 0.24.
With YISSFKFRLSCLRYQIVNSV the amyloid nucleation score was “inactive”.
For NPMGWGQLTGCFHYVAMFCS, the amyloid nucleation score was “inactive”.
In the case of IEACSVSM, the amyloid nucleation score is reported as 0.059 ± 0.98.
With SYILRLSHFITVGLFWAEMQ the amyloid nucleation score was “inactive”.
With YKCMLYSFG the amyloid nucleation score was “inactive”.
In the case of VSNMCVGMKLCFSDNHYREL, the amyloid nucleation score is reported as 1.78 ± 0.067.
With MVLPLSYKQSCFQLCKFLDN the amyloid nucleation score was “inactive”.
For RLITNNVTS, the amyloid nucleation score was “inactive”.
For MRRVGIWYVRR, the amyloid nucleation score was “inactive”.
For SFLARVFT, the amyloid nucleation score was “inactive”.
For SNLHMILDGWEMCALHAAMG, the amyloid nucleation score was “inactive”.
Substance YVYDCYAAQHVY has an amyloid nucleation score of -0.213 ± 0.77.
In the case of AERAWYGGCLNRILLSVCCH, the amyloid nucleation score is reported as “inactive”.
With FPYSKIRCLCDGRNDRLGGL the amyloid nucleation score was -0.043 ± 0.67.
Substance YFPSSCCNDFVFSSLEFQSM has an amyloid nucleation score of 2.12 ± 0.055.
PSVTLQHSGIATWSILDRTL gave an amyloid nucleation score of 0.316 ± 0.26.
In the case of LFNYVSMPANSSSRYTGMLL, the amyloid nucleation score is reported as “inactive”.
ELRCFTQIGLGSCYRFIGYI gave an amyloid nucleation score of 0.371 ± 0.74.
In the case of PLCFLFNQFSYGA, the amyloid nucleation score is reported as “inactive”.
In the case of LSEVRLRRQLLVGACDGGYN, the amyloid nucleation score is reported as “inactive”.
In the case of HSRGENR, the amyloid nucleation score is reported as “inactive”.
With VRYVNGSKCTFNLS the amyloid nucleation score was “inactive”.
For SILDCLLKMGFNTILHACWN, the amyloid nucleation score was “inactive”.
For LRTLALPSSVFVRDVHYY, the amyloid nucleation score was 0.987 ± 0.15.
For VESFICDMIVSPHSLS, the amyloid nucleation score was “inactive”.
With LIFALRFSLSVSCSCAKCFR the amyloid nucleation score was “inactive”.
VYQLIYVTGCQNAVRE showed an amyloid nucleation score of 0.674 ± 0.32.
In the case of VKLNYISLDENVRSVKQVMI, the amyloid nucleation score is reported as “inactive”.
For CKVYGKSLVMAYN, the amyloid nucleation score was “inactive”.
In the case of VLVLAMITFYNLYMYYDVGR, the amyloid nucleation score is reported as “inactive”.
For ALSNN, the amyloid nucleation score was “inactive”.
For CCFSTGCHEKCSSLDDMCVF, the amyloid nucleation score was “inactive”.
For RIGAPKRRSRTWKNPAWTGQ, the amyloid nucleation score was “inactive”.
In the case of NQWIAICNPSPFRVLTAHI, the amyloid nucleation score is reported as “inactive”.
With YNKWCLHLCLRNLSMEEGMD the amyloid nucleation score was 1.87 ± 0.11.
In the case of MYRLIVYT, the amyloid nucleation score is reported as “inactive”.
For LYLNEYELTLEAKRDYMNMR, the amyloid nucleation score was “inactive”.
KVVVTIRTVCRKKVDVICID gave an amyloid nucleation score of 0.071 ± 0.72.
In the case of FTNISVNNAVFVFVVCTAV, the amyloid nucleation score is reported as 2.52 ± 0.054.
In the case of TSMSGYRTRNPMTVPHHCVV, the amyloid nucleation score is reported as “inactive”.
In the case of WGLWSVSVCWMRLFPGY, the amyloid nucleation score is reported as “inactive”.
For GADVSSHVKIFINYNLFSFI, the amyloid nucleation score was 2.55 ± 0.076.
For NHYATFGCSVTFAIVNWSRF, the amyloid nucleation score was 1.86 ± 0.057.
Substance HNPVG has an amyloid nucleation score of 1.23 ± 0.08.
For SHVHLDSSRKRHIDLTNALR, the amyloid nucleation score was “inactive”.
In the case of SQFDAYPCKMFHVYKNYP, the amyloid nucleation score is reported as “inactive”.
With VALDNCTFVLVAMQTDQD the amyloid nucleation score was 0.817 ± 0.12.
With VFKCCVLFGGSRWFTLFLWF the amyloid nucleation score was “inactive”.
With IAVERMIGLLPGSYF the amyloid nucleation score was “inactive”.
In the case of DNLQVTRCYLADWMSSVT, the amyloid nucleation score is reported as “inactive”.
For AGKSLLRVQYP, the amyloid nucleation score was “inactive”.
With FMRDD the amyloid nucleation score was “inactive”.
In the case of TTFATSCNMWYHRSILHS, the amyloid nucleation score is reported as “inactive”.
In the case of YKSPFTGNCLYTVVIKDINL, the amyloid nucleation score is reported as 1.55 ± 0.085.
For TSKVGLACKTIYVERSFWYF, the amyloid nucleation score was “inactive”.
For IVRLFLDVSSVTGHIWARCL, the amyloid nucleation score was “inactive”.
For FIGVCNLVWMELPLDAMRFF, the amyloid nucleation score was 1.36 ± 0.11.
For RMILFFVARSSKMGIGTFGF, the amyloid nucleation score was 0.868 ± 0.21.
With IPVFMLLMYRVSMMDSSSKS the amyloid nucleation score was “inactive”.
With PRNFVANPVELNKGKDFIPS the amyloid nucleation score was “inactive”.
In the case of YIFVMLEHVG, the amyloid nucleation score is reported as “inactive”.
With NDYGDGVSHLMGTGTPTSLW the amyloid nucleation score was “inactive”.
For LAGIMCCEKVYCGPRDGVLG, the amyloid nucleation score was 1.69 ± 0.12.
In the case of RGQFICRCGVARPV, the amyloid nucleation score is reported as “inactive”.
Substance WSFNGSNECISRLDINLNVF has an amyloid nucleation score of 0.407 ± 0.15.
For GINDLISSALNNSRRLRTVG, the amyloid nucleation score was “inactive”.
FLLVMYT gave an amyloid nucleation score of 0.167 ± 0.25.
For GLDRRKICKLHGYGNS, the amyloid nucleation score was “inactive”.
For ITISIYRIGRRFFDEYFNSF, the amyloid nucleation score was “inactive”.
With FFFTEFFELHIWTKSLPFTS the amyloid nucleation score was “inactive”.
With YQSKQRVGSS the amyloid nucleation score was “inactive”.
For IESSYFNNNRFGRHVVKQVG, the amyloid nucleation score was “inactive”.
In the case of VNHKFKSSFFNNH, the amyloid nucleation score is reported as -0.27 ± 1.1.
In the case of QANFYPN, the amyloid nucleation score is reported as “inactive”.
For NREHMAISSCRLVKHCFFWT, the amyloid nucleation score was “inactive”.
For PLPAYCGYVLIGVHGYPFDI, the amyloid nucleation score was “inactive”.
In the case of VRAVLIAYGLK, the amyloid nucleation score is reported as “inactive”.
Substance LCNSVAYPDSGTVRLLKREL has an amyloid nucleation score of 0.005 ± 0.6.
In the case of EIGFYCPSGAGGHRKDRVLR, the amyloid nucleation score is reported as “inactive”.
In the case of RDYYGVLLNLCLHHFWLHW, the amyloid nucleation score is reported as “inactive”.
With QTSMVVDDYCILYVLHWGWG the amyloid nucleation score was “inactive”.
In the case of VKRADNSSSALRWYLNMYNL, the amyloid nucleation score is reported as “inactive”.
With SGVLLFGVSRMHQR the amyloid nucleation score was 0.203 ± 0.28.
For HFRIKNTCFKRCLSVESRKY, the amyloid nucleation score was “inactive”.
With YLCIKNRLDKDRSW the amyloid nucleation score was “inactive”.
For SVFPSLFNACSDLNSVHKVV, the amyloid nucleation score was “inactive”.
For CSMPWLRSSTGGGVLLIEKS, the amyloid nucleation score was “inactive”.
With LNDDRISSGYAASIVKGLLT the amyloid nucleation score was -0.873 ± 1.4.
With CGRLHDVG the amyloid nucleation score was “inactive”.
With LLVFSTGHARRFFSSYESRG the amyloid nucleation score was 1.28 ± 0.09.
With HINDAYTCVMLYMGLTRWTI the amyloid nucleation score was “inactive”.
For VNGLLAIRVYCKHWP, the amyloid nucleation score was “inactive”.
For PEASLLVPMVSSYPLHFA, the amyloid nucleation score was “inactive”.
Substance NLMCW has an amyloid nucleation score of 0.958 ± 0.21.
With TDHAWFWEQS the amyloid nucleation score was “inactive”.
With PFGVFHSSATTKRHFYMVGV the amyloid nucleation score was “inactive”.
Work on KSTSFTYFLLNIRLMGYCPC yielded an amyloid nucleation score of 0.725 ± 0.16.
In the case of LRLCGAMPDRCLW, the amyloid nucleation score is reported as “inactive”.
In the case of DRVKACARFGRW, the amyloid nucleation score is reported as “inactive”.
For RRVFHQAFSGWSDLCIQRSG, the amyloid nucleation score was “inactive”.
For ALGIYRTIYCVIVFG, the amyloid nucleation score was “inactive”.
Substance WVGNTVKHKLGLVGNCGSCA has an amyloid nucleation score of -0.73 ± 1.9.
Work on SKGTLKHLN yielded an amyloid nucleation score of 0.921 ± 0.12.
For HCCNIRRARTQF, the amyloid nucleation score was “inactive”.
In the case of VCVTSSSMCNFDGLVVTRVV, the amyloid nucleation score is reported as “inactive”.
For RMRLSWVMHSV, the amyloid nucleation score was “inactive”.
Substance LTRDVCFN has an amyloid nucleation score of 0.312 ± 0.54.
For KDALISYFYYDCMHCPQASR, the amyloid nucleation score was “inactive”.
With LPCPACKVLNDKNSSKCENY the amyloid nucleation score was “inactive”.
TIFGCRSSQCSMFVLVFDFY showed an amyloid nucleation score of 1.51 ± 0.12.
With WFFFDIAWRSPTIRRWTSSM the amyloid nucleation score was “inactive”.
With RNVTRGYYMYFKRMVRHYWG the amyloid nucleation score was “inactive”.
For FSSMVNVYSLLKVFF, the amyloid nucleation score was “inactive”.
For FAYITHLKKYKSWTVPWTYY, the amyloid nucleation score was “inactive”.
In the case of IRNALIYIVISLKFGRRGCY, the amyloid nucleation score is reported as 0.107 ± 0.28.
In the case of MHAMNVMAGVRLALVYVRSN, the amyloid nucleation score is reported as “inactive”.
In the case of VISMRVTGVVHRFWNEVYRD, the amyloid nucleation score is reported as 1.22 ± 0.1.
In the case of VGLIWVVSFIDKNSYGWSGT, the amyloid nucleation score is reported as “inactive”.
LGRAQYETQFSATSVRLEPG gave an amyloid nucleation score of -0.142 ± 0.82.
For PAYLHYSIFWQNVFSNVLIM, the amyloid nucleation score was 1.1 ± 0.14.
TFSFILRSNLLYENRSVDRA showed an amyloid nucleation score of 1.57 ± 0.077.
With VSGMDCSGGFASVESMASYR the amyloid nucleation score was “inactive”.
With ECYIVWFLRLCSSGVYVYLR the amyloid nucleation score was “inactive”.
For GVSIGNCTMKGEVDFMVDGK, the amyloid nucleation score was “inactive”.
In the case of DCAYMCNVYFLVLGSAKLFI, the amyloid nucleation score is reported as 1.27 ± 0.17.
In the case of SYNKEKVSKTFVGCPTRSMV, the amyloid nucleation score is reported as “inactive”.
In the case of YRILTGLSLSFRVCIYFVW, the amyloid nucleation score is reported as “inactive”.
For IYIRRVRISVEATLRHCCVI, the amyloid nucleation score was “inactive”.
In the case of FRGFIAVDAVGMVTNYIIKY, the amyloid nucleation score is reported as 1.89 ± 0.062.
For SKFSSC, the amyloid nucleation score was “inactive”.
For VGAGWYN, the amyloid nucleation score was “inactive”.
Substance DFAVGLLVHWHNPHYNTELQ has an amyloid nucleation score of 1.25 ± 0.13.
In the case of CNVFWVPTVRLIFKMYKVSR, the amyloid nucleation score is reported as 0.417 ± 0.36.
NLEYCSILFKRH showed an amyloid nucleation score of 2 ± 0.095.
